This is an account of results in the Human Domainome abundance scans (Beltran et al. 2025).

± gives the uncertainty stated by the source.

To fix the notation:
B1: Double-stranded RNA-specific adenosine deaminase, residues 296 to 358; numbered along this chain, P55265 (parent)
chain: MAEIKEKICDYLFNVSDSSALNLAKNIGLTKARDINAVLIDMERQGDVYRQGTTPPIWHLTDK

The series covers variants of B1. The series is described as follows: abundance fitness (aPCA) (normalised: wild type 0, dead -1); higher = more abundant; growth selection in yeast, the domain comes from the species named. As to conditions: Homo sapiens.
As to MAEIKEKICDYLFNVHDSSALNLAKNIGLTKARDINAVLIDMERQGDVYRQGTTPPIWHLTDK [S16H], the abundance fitness is -0.108 ± 0.094.

Regarding MAEIKEKICDYLFNVCDSSALNLAKNIGLTKARDINAVLIDMERQGDVYRQGTTPPIWHLTDK [S16C], the abundance fitness is -0.25 ± 0.095.

MAEIKEKICDYLFNVADSSALNLAKNIGLTKARDINAVLIDMERQGDVYRQGTTPPIWHLTDK [S16A]: the abundance fitness was -0.018 ± 0.048.

Consider MAEIKEKICDYLFNVDDSSALNLAKNIGLTKARDINAVLIDMERQGDVYRQGTTPPIWHLTDK [S16D], for which the abundance fitness is -0.342 ± 0.074.

In the case of MAEIKEKICDYLFGVSDSSALNLAKNIGLTKARDINAVLIDMERQGDVYRQGTTPPIWHLTDK [N14G], the abundance fitness was -0.236 ± 0.047.

Turning to MAEIKEKICDYLFTVSDSSALNLAKNIGLTKARDINAVLIDMERQGDVYRQGTTPPIWHLTDK [N14T], the abundance fitness stood at 0.086 ± 0.051.

Turning to MAEIKEKICDYLFCVSDSSALNLAKNIGLTKARDINAVLIDMERQGDVYRQGTTPPIWHLTDK [N14C], the abundance fitness is -0.215 ± 0.072.

On to MAEIKEKICDYLFKVSDSSALNLAKNIGLTKARDINAVLIDMERQGDVYRQGTTPPIWHLTDK [N14K], for which the abundance fitness was determined as 0.434 ± 0.062.

For the variant MAEIKEKICDYLFQVSDSSALNLAKNIGLTKARDINAVLIDMERQGDVYRQGTTPPIWHLTDK [N14Q], the abundance fitness is 0.008 ± 0.087.

For the variant MAEIKEKICDYLFWVSDSSALNLAKNIGLTKARDINAVLIDMERQGDVYRQGTTPPIWHLTDK [N14W], the abundance fitness was -0.426 ± 0.084.

As for MAEIKEKICDYLFSVSDSSALNLAKNIGLTKARDINAVLIDMERQGDVYRQGTTPPIWHLTDK [N14S], the abundance fitness was 0.017 ± 0.047.

On to MAEIKEKICDYLFPVSDSSALNLAKNIGLTKARDINAVLIDMERQGDVYRQGTTPPIWHLTDK [N14P], for which the abundance fitness is -0.658 ± 0.087.

As to MAEIKEKICDYLFYVSDSSALNLAKNIGLTKARDINAVLIDMERQGDVYRQGTTPPIWHLTDK [N14Y], the abundance fitness came to 0.045 ± 0.096.

As to MAEIKEKICDYLFFVSDSSALNLAKNIGLTKARDINAVLIDMERQGDVYRQGTTPPIWHLTDK [N14F], the abundance fitness was -0.385 ± 0.083.

As for MAEIKEKICDYLFAVSDSSALNLAKNIGLTKARDINAVLIDMERQGDVYRQGTTPPIWHLTDK [N14A], the abundance fitness was -0.014 ± 0.049.

For MAEIKEKICDYLFEVSDSSALNLAKNIGLTKARDINAVLIDMERQGDVYRQGTTPPIWHLTDK [N14E], the abundance fitness turned out to be 0.102 ± 0.059.

On to MAEIKEKICDYLFMVSDSSALNLAKNIGLTKARDINAVLIDMERQGDVYRQGTTPPIWHLTDK [N14M], for which the abundance fitness was -0.189 ± 0.068.

Take MAEIKEKICDYLFDVSDSSALNLAKNIGLTKARDINAVLIDMERQGDVYRQGTTPPIWHLTDK [N14D]: the abundance fitness was -0.312 ± 0.091.

MAEIKEKICDYLFRVSDSSALNLAKNIGLTKARDINAVLIDMERQGDVYRQGTTPPIWHLTDK [N14R]: the abundance fitness worked out at 0.285 ± 0.044.

MAEIKEKICDYLFHVSDSSALNLAKNIGLTKARDINAVLIDMERQGDVYRQGTTPPIWHLTDK [N14H]: the abundance fitness was 0.085 ± 0.062.

As for MAEIKEKICDYLFVVSDSSALNLAKNIGLTKARDINAVLIDMERQGDVYRQGTTPPIWHLTDK [N14V], the abundance fitness was -0.31 ± 0.034.

MAEIKEKICDYLFLVSDSSALNLAKNIGLTKARDINAVLIDMERQGDVYRQGTTPPIWHLTDK [N14L]: the abundance fitness is -0.121 ± 0.047.

Regarding MAEIKEKICDYGFNVSDSSALNLAKNIGLTKARDINAVLIDMERQGDVYRQGTTPPIWHLTDK [L12G], the abundance fitness is -0.441 ± 0.09.

Take MAEIKEKICDYEFNVSDSSALNLAKNIGLTKARDINAVLIDMERQGDVYRQGTTPPIWHLTDK [L12E]: the abundance fitness was -0.115 ± 0.098.

For the variant MAEIKEKICDYFFNVSDSSALNLAKNIGLTKARDINAVLIDMERQGDVYRQGTTPPIWHLTDK [L12F], the abundance fitness was -0.727 ± 0.3.

For the variant MAEIKEKICDYHFNVSDSSALNLAKNIGLTKARDINAVLIDMERQGDVYRQGTTPPIWHLTDK [L12H], the abundance fitness is -0.46 ± 0.21.

In the case of MAEIKEKICDYAFNVSDSSALNLAKNIGLTKARDINAVLIDMERQGDVYRQGTTPPIWHLTDK [L12A], the abundance fitness is -0.481 ± 0.12.

On to MAEIKEKICDYCFNVSDSSALNLAKNIGLTKARDINAVLIDMERQGDVYRQGTTPPIWHLTDK [L12C], for which the abundance fitness was -1.02 ± 0.3.

In the case of MAEIKEKICDYDFNVSDSSALNLAKNIGLTKARDINAVLIDMERQGDVYRQGTTPPIWHLTDK [L12D], the abundance fitness is -0.706 ± 0.34.

MAEIKEKICDYSFNVSDSSALNLAKNIGLTKARDINAVLIDMERQGDVYRQGTTPPIWHLTDK [L12S]: the abundance fitness is -0.295 ± 0.096.

Regarding MAEIKEKICDYVFNVSDSSALNLAKNIGLTKARDINAVLIDMERQGDVYRQGTTPPIWHLTDK [L12V], the abundance fitness is -0.669 ± 0.078.

MAEIKEKICDYYFNVSDSSALNLAKNIGLTKARDINAVLIDMERQGDVYRQGTTPPIWHLTDK [L12Y]: the abundance fitness is -0.044 ± 0.29.

Consider MAEIKEKICDYWFNVSDSSALNLAKNIGLTKARDINAVLIDMERQGDVYRQGTTPPIWHLTDK [L12W], for which the abundance fitness was -1.01 ± 0.24.

Take MAEIKEKICDYMFNVSDSSALNLAKNIGLTKARDINAVLIDMERQGDVYRQGTTPPIWHLTDK [L12M]: the abundance fitness is -0.82 ± 0.21.

Turning to MAEIKEKICDYRFNVSDSSALNLAKNIGLTKARDINAVLIDMERQGDVYRQGTTPPIWHLTDK [L12R], the abundance fitness is -0.367 ± 0.085.

For MAEIKEKICDYKFNVSDSSALNLAKNIGLTKARDINAVLIDMERQGDVYRQGTTPPIWHLTDK [L12K], the abundance fitness was -0.95 ± 0.23.

Turning to MAEIKEKICDYTFNVSDSSALNLAKNIGLTKARDINAVLIDMERQGDVYRQGTTPPIWHLTDK [L12T], the abundance fitness was -0.99 ± 0.36.

Regarding MAEIKEKICDYIFNVSDSSALNLAKNIGLTKARDINAVLIDMERQGDVYRQGTTPPIWHLTDK [L12I], the abundance fitness was -0.69 ± 0.42.

Take MAEIKEKICDYQFNVSDSSALNLAKNIGLTKARDINAVLIDMERQGDVYRQGTTPPIWHLTDK [L12Q]: the abundance fitness was -0.512 ± 0.16.

Regarding MAEIKEKICDYLTNVSDSSALNLAKNIGLTKARDINAVLIDMERQGDVYRQGTTPPIWHLTDK [F13T], the abundance fitness stood at 0.227 ± 0.057.

For MAEIKEKICDYLGNVSDSSALNLAKNIGLTKARDINAVLIDMERQGDVYRQGTTPPIWHLTDK [F13G], the abundance fitness was 0.335 ± 0.044.

With MAEIKEKICDYLINVSDSSALNLAKNIGLTKARDINAVLIDMERQGDVYRQGTTPPIWHLTDK [F13I], the abundance fitness turned out to be 0.142 ± 0.09.
